Test system: Escherichia coli TOP10
Experiment: shrunken log2 fold change of peptide-encoding DNA abundance (4.5 h post-induction vs induction); higher = less antimicrobial activity (less host growth inhibition)
Details: time post-induction: 4.5 h; library: site-saturation at positions 5, 18, 19, 20
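Also: peptides expressed intracellularly from a pBAD plasmid library in pooled LB shake-flask culture, induced with 0.3% L-arabinose, DNA abundance read by NGS, three biological replicates, DESeq2 with apeglm shrinkage.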

Sequence	shrunken log2 fold change
RRIRTRPPRLPRPRPRPWCEPRP	0.0211
RRIRWRPPRLPRPRPRPPDQPRP	0.694
RRIRARPPRLPRPRPRPNHTPRP	-0.605
RRIRIRPPRLPRPRPRPPKVPRP	-0.0254
RRIRTRPPRLPRPRPRPESRPRP	-0.0705
RRIRTRPPRLPRPRPRPYMHPRP	-0.685
RRIRQRPPRLPRPRPRPAMYPRP	-0.244
RRIRVRPPRLPRPRPRPSCDPRP	-0.231
RRIRTRPPRLPRPRPRPKHEPRP	-0.3
RRIRHRPPRLPRPRPRPQAHPRP	-0.0538
RRIRRRPPRLPRPRPRPQSWPRP	0.519
RRIRPRPPRLPRPRPRPASFPRP	0.0681
RRIRNRPPRLPRPRPRPYWPPRP	-0.199
RRIRWRPPRLPRPRPRPCFCPRP	0.126
RRIRKRPPRLPRPRPRPKGIPRP	0.106
RRIRFRPPRLPRPRPRPRHVPRP	-0.0276
RRIRSRPPRLPRPRPRPIYCPRP	-0.876
RRIRCRPPRLPRPRPRPDICPRP	-0.22
RRIRIRPPRLPRPRPRPRSMPRP	-0.695
RRIRDRPPRLPRPRPRPCKFPRP	0.0155
RRIRRRPPRLPRPRPRPMISPRP	0.044
RRIRIRPPRLPRPRPRPNTTPRP	-0.357
RRIRGRPPRLPRPRPRPANAPRP	0.694

Sequence	shrunken log2 fold change
RRIRIRPPRLPRPRPRPCFEPRP	-0.626
RRIRSRPPRLPRPRPRPCYKPRP	-0.281
RRIRPRPPRLPRPRPRPRKEPRP	-0.157
RRIRARPPRLPRPRPRPMNNPRP	-0.186
RRIRLRPPRLPRPRPRPFDPPRP	-0.352
RRIRARPPRLPRPRPRPLAIPRP	0.397
RRIRERPPRLPRPRPRPAVAPRP	0.0153
RRIRMRPPRLPRPRPRPVFLPRP	0.0386
RRIRPRPPRLPRPRPRPQLDPRP	0.314
RRIRYRPPRLPRPRPRPKRWPRP	0.165
RRIRLRPPRLPRPRPRPNHHPRP	-0.0905
RRIRSRPPRLPRPRPRPWFRPRP	0.212
RRIRVRPPRLPRPRPRPKSFPRP	0.217
RRIRGRPPRLPRPRPRPCCFPRP	0.773
RRIRQRPPRLPRPRPRPGIPPRP	-0.0269
RRIRDRPPRLPRPRPRPSVHPRP	-0.258
RRIRCRPPRLPRPRPRPECYPRP	-0.238
RRIRTRPPRLPRPRPRPAEDPRP	0.17
RRIRGRPPRLPRPRPRPPKMPRP	0.348
RRIRNRPPRLPRPRPRPCFRPRP	-0.241
RRIRGRPPRLPRPRPRPIIRPRP	0.07
RRIRERPPRLPRPRPRPAPKPRP	0.678
RRIRRRPPRLPRPRPRPKDIPRP	-0.193

Sequence	shrunken log2 fold change
RRIRIRPPRLPRPRPRPNKFPRP	-0.992
RRIRRRPPRLPRPRPRPPARPRP	0.762
RRIRMRPPRLPRPRPRPAPPPRP	1.43
RRIRMRPPRLPRPRPRPCSRPRP	0.296
RRIRDRPPRLPRPRPRPLGTPRP	0.706
RRIRLRPPRLPRPRPRPQMRPRP	0.64
RRIRHRPPRLPRPRPRPTIGPRP	-0.0227
RRIRYRPPRLPRPRPRPTWDPRP	0.114
RRIRPRPPRLPRPRPRPDYWPRP	0.207
RRIRPRPPRLPRPRPRPSIDPRP	-0.598
RRIRKRPPRLPRPRPRPQFVPRP	-0.0281
RRIRRRPPRLPRPRPRPWYTPRP	-0.637
RRIRLRPPRLPRPRPRPFQAPRP	0.0248
RRIRNRPPRLPRPRPRPCHTPRP	-0.316
RRIRFRPPRLPRPRPRPWETPRP	0.0299
RRIRERPPRLPRPRPRPNYVPRP	-0.931
RRIRKRPPRLPRPRPRPWYIPRP	-0.568
RRIRNRPPRLPRPRPRPFYRPRP	-0.131
RRIRERPPRLPRPRPRPANCPRP	-0.65
RRIRNRPPRLPRPRPRPYLGPRP	-0.21
RRIRDRPPRLPRPRPRPQKWPRP	0.15
RRIRCRPPRLPRPRPRPNPLPRP	-0.131
RRIRGRPPRLPRPRPRPKCYPRP	0.107

Sequence	shrunken log2 fold change
RRIRHRPPRLPRPRPRPSIQPRP	-0.344
RRIRYRPPRLPRPRPRPYFPPRP	-0.702
RRIRYRPPRLPRPRPRPFMPPRP	-0.323
RRIRYRPPRLPRPRPRPMIEPRP	0.00164
RRIRSRPPRLPRPRPRPELHPRP	0.249
RRIRCRPPRLPRPRPRPKDVPRP	0.015
RRIRPRPPRLPRPRPRPQEQPRP	-0.0215
RRIRARPPRLPRPRPRPWSTPRP	0.0839
RRIRDRPPRLPRPRPRPVERPRP	-0.00663
RRIRVRPPRLPRPRPRPRNYPRP	-0.567
RRIRYRPPRLPRPRPRPDSWPRP	-0.602
RRIRCRPPRLPRPRPRPRVFPRP	0.0449
RRIRFRPPRLPRPRPRPTRIPRP	0.0179
RRIRKRPPRLPRPRPRPIIWPRP	0.0809
RRIRQRPPRLPRPRPRPRSKPRP	0.185
RRIRSRPPRLPRPRPRPNMKPRP	-0.436
RRIRARPPRLPRPRPRPQRNPRP	-0.0146
RRIRLRPPRLPRPRPRPYYDPRP	-0.379
RRIRCRPPRLPRPRPRPGMKPRP	0.062
RRIRHRPPRLPRPRPRPLQKPRP	0.104
RRIRDRPPRLPRPRPRPMSTPRP	0.0569
RRIRWRPPRLPRPRPRPIGIPRP	-0.0434

From the supplement of paper PMC9112550, “Optimization of the antimicrobial peptide Bac7 by deep mutational scanning” (BMC Biology, 2022)
